Holding throughout (assay type): binding
The target in test [1] is T1, human Claudin18.2 (Homo sapiens, UniProt P56856).
T1 construct: expressed in transfected cells
The experiment in a line: Cell-based ELISA affinity of murine antibodies on HEK293T-Claudin18.2 (human) cells. On the procedure:
(§1) The affinity of the anti-human Claudin18.2 murine monoclonal antibodies was evaluated by cell-based ELISA. The experimental procedures were as follows: The day before the experiment, HEK293T-Claudin18.2 (human) cells were plated in a 96-well plate at 5×10^4 cells/well. On the day of the experiment, the supernatant was removed, the cells in each well were washed once with 300 μL of PBS, and 100 μL of 4% paraformaldehyde was added to each well for fixation at room temperature for 20 min. Paraformaldehyde was then removed, and the cells in each well were washed twice with 300 μL of PBS. 100 μL of 2% BSA (in PBS) was added to each well, and the mixture was blocked at 37° C. for 2 h. After removing the blocking solution, each antibody subjected to gradient dilution (diluted with 2% BSA (in PBS), starting at […], in a 3-fold gradient, for a total of 11 concentration points) was added to the plate at 100 μL/well, and the mixture was incubated at 37° C. for 2 h. The supernatant was removed, and the cells in each well were washed three times with 300 μL of PBST. 100 μL of an anti-mouse IgG HRP secondary antibody (Jackson, cat #115-035-003) in 2% BSA was added to each well, and the mixture was incubated at 37° C. for 1 h. The secondary antibody was then removed, and the cells in each well were washed five times with 300 μL of PBST, followed by the addition of 100 μL of a TMB substrate (Huzhou InnoReagents Co., Ltd.) per well for color development for 5-20 min. The reaction was stopped by adding 50 μL of 2 N HCl to each well, and OD450 nm values were read on a microplate reader (manufacturer: MD, model: SpectraMax). The values obtained were plotted by GraphPad Prism to calculate the EC50 value.

Test [2] addresses T1, human Claudin18.2. Description: Cell-based ELISA affinity of humanized antibodies on HEK293T-Claudin18.2 (human) cells. Conditions: HEK293T-Claudin18.2 cells. On the procedure:
as §1
The affinity of the anti-human Claudin18.2 humanized monoclonal antibodies was determined by cell-based ELISA. The cell-based ELISA was conducted as described in Example I-3.
For orientation: In an ELISA, binding on a coated surface is turned into a signal by an enzyme label.

In test [3] the target is T1, human Claudin18.2. The experiment in a line: Cell-based ELISA affinity of humanized antibodies on L929-Claudin18.2 (human) cells. To be noted: L929-Claudin18.2 cells.
For the next test, the target named is T2, human Claudin18.1 (Homo sapiens, UniProt P56856).
T2 construct: expressed in transfected cells
The experiment in a line: FACS specificity of humanized antibodies on HEK293T-Claudin18.1 (human) cells. Conditions: antibody 50 μg/mL, APC secondary antibody. As to the method: The specificity of the anti-human Claudin18.2 humanized monoclonal antibodies was determined by flow cytometry (FACS). The experimental procedures were as follows: HEK293T-Claudin18.1 (human) cells were digested, collected by centrifugation, washed three times with pre-cooled PBS, resuspended in 1% BSA (in PBS), and added to a 96-well pointed bottom plate at 3×10^5 cells/well. Each test antibody with a final concentration of 50 μg/mL was added, and the mixture was incubated at 4° C. for 1 h. The cells were washed three times with pre-cooled PBS, and then 1 μL of a fluorescent secondary antibody (APC: Biolegend-410712 or PE: BioLegend-410708) was added to each well. The mixture was incubated at 4° C. for 0.5 h, and the cells were washed three times with pre-cooled PBS, then resuspended, and assayed on a flow cytometer. For reference, anti-human Claudin18.1 positive control antibodies (positive control antibody-1 and positive control antibody-2) were included in the experiment.

Numbering of substitutions follows the chain as printed.

B1: 40G11H2: anti-human Claudin18.2 murine monoclonal antibody, VH SEQ ID NO: 50, VL SEQ ID NO: 51 (antibody, V domains shown)
VH: EVQLQQSGAELARPGASVKLSCKASGYTFTSYGIRWVKQRTGQGLEWIGEIYPRGGNTYYDEKFKGKATLTADKSSSTAYMGLRSLTSEDSAVYFCARADYGNSFAYWGQGTLVTVSA
VL: DIVMTQSPSSLTVTAREKVTMSCKSSQSLLNSGNQKNYLTWYHQKPGQPPKLLIYWASTRESGVPDRFTGSGSGTDFTLTISSVQAEDLAVYFCQNAYFYPFTFGTGTKLEIK
With B1, the “Affinity HEK293T-18.2 EC50” value with human Claudin18.2 [1] is reported as 7.376 ng/mL.

B2: 2D3A11: anti-human Claudin18.2 murine monoclonal antibody, VH SEQ ID NO: 23, VL SEQ ID NO: 24 (antibody, V domains shown)
VH: EVQLQQSGPELVKPGASVRMSCKASGYTFTSYVVHWVKQKPGQGLEWIGYINPYNADSKYNERFKGKATLTSDKSSNSAYMELSSLTSEDSAVYYCSRSYYGNSFDVWGAGTTVTVSS
VL: DIVMTQSPSSLTVTTGEKVTMSCKSSQSLLNSGNQKNYLTWYQQKPGQSPKLLFFWASTRQSGVPDRFTGSGSGTYFTLTISSVQAEDLAVYYCQNDYYFPFTFGTGTKLEIK
Consider B2, for which the “Affinity HEK293T-18.2 EC50” value in the test with human Claudin18.2 [1] came to 8.143 ng/mL.

B3: 2D3A11-HZ2: humanized anti-Claudin18.2 antibody, VH SEQ ID NO: 40, VL SEQ ID NO: 39 (antibody, V domains shown)
VH: QVQLVESGAEVKKPGASVKVSCKASGYTFTSYVVHWVRQAPGQGLEWMGYINPYNADSKYSQEFQGRATLTSDKSASTAYMELSSLRSEDMAVYYCSRSYYGNSFDVWGQGTLVTVSS
VL: DIVMTQSPDSLAVSLGERATINCKSSQSLLNSGNQKNYLTWYQQKPGQSPKLLFFWASTRQSGVPDRFSGSGSGTDFTLTISSLQAEDVAVYYCQNDYYFPFTFGQGTKVEIK
As to B3, the “Affinity detected by cell-based ELISA (EC50, ng/mL) HEK293T-Claudin18.2” value with human Claudin18.2 [2] is 14.01 ± 2.29(N = 2) ng/mL. The “Affinity detected by cell-based ELISA (EC50, ng/mL) L929-Claudin18.2” value with human Claudin18.2 [3] is given as 25.62 ng/mL. In the test with human Claudin18.1, the “Mean APC fluorescence signal value” worked out at 382, the “Median APC fluorescence signal value” is 329 and the “Positive rate (%)” value was 1%.

B4: 1A6G10: anti-human Claudin18.2 murine monoclonal antibody, VH SEQ ID NO: 46, VL SEQ ID NO: 47 (antibody, V domains shown)
VH: QVQLKESGGGLVKPGGSLKLSCAASGFTFSSYAMSWVRQTPEKRLEWVAAIHSNGGSTYNSDTMRDRFTISRDHAKNTLYLQMSSLRSEDTALYYCGRQSFGNALDYWGQGTSVTVSS
VL: DIQMTQSPSSLTVTAGEKVTLTCKSSQSLLNSGNQKNYLTWYQQKPGQPPKLLIYWASTRESGVPDRFTGSGSGTFFTLTISSVQAEDLAVYFCQNDYVYPFTFGAGTQLELK
Take B4: the “Affinity HEK293T-18.2 EC50” value in the test with human Claudin18.2 [1] is recorded as 5.024 ng/mL.

B5: 32F7A6: anti-human Claudin18.2 murine monoclonal antibody, VH SEQ ID NO: 52, VL SEQ ID NO: 53 (antibody, V domains shown)
VH: QIQLVQSGPELRKPGETVKISCKASGYTFTAYTMGWVKQAPGKGLEWMAWINTYSGVPTYAADFKGRFAFSLETSASTAYLLINNLKNEDTATYFCARGVRGNSMDYWGQGTSVTVSS
VL: DIVETQSPSSLTVTVGERVTLSCKSSQSLLNSGNQRNYLTWSQQKPGQPPKLLIYWASTRESGVPNRFTGGGSGTYFTLTISSVQVEDLAVYYCQNTYSFPFTFGTGTKLEIK
With B5, the “Affinity HEK293T-18.2 EC50” value with human Claudin18.2 [1] is given as 2.399 ng/mL.

B6: 8H11A10: anti-human Claudin18.2 murine monoclonal antibody, VH SEQ ID NO: 44, VL SEQ ID NO: 45 (antibody, V domains shown)
VH: QVQLKESGPVLVAPSQSLSITCTVSGFSLTNYGVHWVRQPPGKGLEWLGVIWSGGRTNYNSALMSRLSISKDNSKSQVFLKMNSLQTDDTAMYYCAKRDGIYGDYWGQGTSVTVSS
VL: DIVETQSPSSLTVTAGEKVTMSCKSSQSLLNSGNQKNYLTWYQQKPGQSPKLLIYWASTRESGVPDRFTGSGFGTDFTLTISSVQAEDLAVYYCQNDYIYPLTFGAGTKLELK
For B6, the “Affinity HEK293T-18.2 EC50” value in the test with human Claudin18.2 [1] worked out at 12.32 ng/mL.

B7: 23F2F2: anti-human Claudin18.2 murine monoclonal antibody, VH SEQ ID NO: 48, VL SEQ ID NO: 49 (antibody, V domains shown)
VH: QVQLKESGGGLVQPGGSMKLSCAASGFTFSDAWMNWVRQSPEKGLEWVAEIRNKADYHATHYVESVTGRFTISRDDSKSSVYLQMNRLRAEDTGIYYCTRNYGSRFDYWGQGTTLTVSS
VL: B6 VL with K36R, Q48H, S49P, F73S, I81V, S82T, I99F, T103A, A106T
Regarding B7, the “Affinity HEK293T-18.2 EC50” value in the test with human Claudin18.2 [1] stood at 6.015 ng/mL.

B8: 25C7A5: anti-human Claudin18.2 murine monoclonal antibody, VH SEQ ID NO: 21, VL SEQ ID NO: 22 (antibody, V domains shown)
VH: EVQLQQPGAELVKPGTSVKLSCKASGYTFTNYWLHWVRQRPGQGLEWIGMMHPISGSSNNNERFKSKATLTVDKSSTTAYMQLSRMTSEDSAVYYCARGLLSAMDYWGQGTSVTVSS
VL: CIVLTQSPKSMSMSVGERVTLSCKASENVKTYVSWYQQRPEQSPKLLIYEASNRYTGVPDRFTGSGSATVFTLTISSVQTEDLANYFCGQTYSFPPTFGSGTKLEIK
With B8, the “Affinity HEK293T-18.2 EC50” value with human Claudin18.2 [1] was 10.49 ng/mL.
